Experimental findings from doi:10.1101/2022.02.17.480956 (bioRxiv, 2022) are described below.

The target of one data set is T1, COUP-TFII;NKX2-1 (mouse;, UniProt P43135;P50220 1-414;1-372, |).
T1 sequence 1: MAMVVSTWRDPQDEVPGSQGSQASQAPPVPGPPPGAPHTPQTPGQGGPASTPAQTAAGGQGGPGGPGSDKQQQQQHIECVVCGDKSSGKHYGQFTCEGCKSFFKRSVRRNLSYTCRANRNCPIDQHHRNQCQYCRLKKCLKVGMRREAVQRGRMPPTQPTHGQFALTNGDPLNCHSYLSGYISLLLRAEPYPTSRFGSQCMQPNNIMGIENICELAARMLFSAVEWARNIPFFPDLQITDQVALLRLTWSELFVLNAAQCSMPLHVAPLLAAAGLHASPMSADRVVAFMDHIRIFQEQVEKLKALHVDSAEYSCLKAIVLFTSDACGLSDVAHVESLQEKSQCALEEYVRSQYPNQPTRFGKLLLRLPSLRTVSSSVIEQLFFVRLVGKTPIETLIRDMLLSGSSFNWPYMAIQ
T1 sequence 2: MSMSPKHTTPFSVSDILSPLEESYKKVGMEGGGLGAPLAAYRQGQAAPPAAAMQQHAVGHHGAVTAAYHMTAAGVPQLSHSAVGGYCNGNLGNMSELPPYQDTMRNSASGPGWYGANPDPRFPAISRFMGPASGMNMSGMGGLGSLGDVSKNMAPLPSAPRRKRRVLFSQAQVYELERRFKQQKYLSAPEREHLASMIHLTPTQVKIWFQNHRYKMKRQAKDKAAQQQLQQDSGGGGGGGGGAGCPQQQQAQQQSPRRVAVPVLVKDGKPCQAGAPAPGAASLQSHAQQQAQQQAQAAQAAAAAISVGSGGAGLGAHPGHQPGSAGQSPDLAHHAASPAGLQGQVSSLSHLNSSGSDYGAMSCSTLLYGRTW
The data set is described as follows: EMSA. In general terms: In EMSA bound probe runs differently from free probe, usually more slowly.

Data set [1] has as its target T2, recombinant COUP-TFII (construct not told for this experiment) (mouse, UniProt P43135 1-414).
T2 sequence (looked up): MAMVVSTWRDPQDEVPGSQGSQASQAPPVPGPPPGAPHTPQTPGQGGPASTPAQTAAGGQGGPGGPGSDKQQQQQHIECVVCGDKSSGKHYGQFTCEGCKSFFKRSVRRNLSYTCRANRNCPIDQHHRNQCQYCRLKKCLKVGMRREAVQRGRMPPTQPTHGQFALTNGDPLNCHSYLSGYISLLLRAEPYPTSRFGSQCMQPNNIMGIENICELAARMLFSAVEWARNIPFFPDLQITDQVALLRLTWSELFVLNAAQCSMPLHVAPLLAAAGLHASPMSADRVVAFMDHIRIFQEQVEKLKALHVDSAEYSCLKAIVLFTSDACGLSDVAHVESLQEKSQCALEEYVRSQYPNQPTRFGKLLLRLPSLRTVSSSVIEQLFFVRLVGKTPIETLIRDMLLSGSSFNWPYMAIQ
The data set is described as follows: native gel or EMSA.

Data set [2] has as its target T3, COUP-TFII-GST (mouse, UniProt P43135 1-414).
T3 sequence (looked up): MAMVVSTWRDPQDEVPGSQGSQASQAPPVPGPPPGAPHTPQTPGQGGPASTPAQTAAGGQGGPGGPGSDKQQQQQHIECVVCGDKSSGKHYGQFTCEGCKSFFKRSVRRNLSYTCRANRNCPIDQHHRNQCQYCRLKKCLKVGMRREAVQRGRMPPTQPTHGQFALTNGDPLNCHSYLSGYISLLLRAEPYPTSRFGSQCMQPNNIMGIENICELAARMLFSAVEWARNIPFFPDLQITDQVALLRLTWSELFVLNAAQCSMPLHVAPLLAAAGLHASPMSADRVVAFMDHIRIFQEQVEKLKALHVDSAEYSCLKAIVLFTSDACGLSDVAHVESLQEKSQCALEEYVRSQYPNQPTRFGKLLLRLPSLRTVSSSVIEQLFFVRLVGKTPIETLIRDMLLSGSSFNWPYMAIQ
Kind of data set: native gel or EMSA.

Data set [3] deals with T4, COUP-TFII-GST (mouse, UniProt P43135 1-414).
T4 sequence: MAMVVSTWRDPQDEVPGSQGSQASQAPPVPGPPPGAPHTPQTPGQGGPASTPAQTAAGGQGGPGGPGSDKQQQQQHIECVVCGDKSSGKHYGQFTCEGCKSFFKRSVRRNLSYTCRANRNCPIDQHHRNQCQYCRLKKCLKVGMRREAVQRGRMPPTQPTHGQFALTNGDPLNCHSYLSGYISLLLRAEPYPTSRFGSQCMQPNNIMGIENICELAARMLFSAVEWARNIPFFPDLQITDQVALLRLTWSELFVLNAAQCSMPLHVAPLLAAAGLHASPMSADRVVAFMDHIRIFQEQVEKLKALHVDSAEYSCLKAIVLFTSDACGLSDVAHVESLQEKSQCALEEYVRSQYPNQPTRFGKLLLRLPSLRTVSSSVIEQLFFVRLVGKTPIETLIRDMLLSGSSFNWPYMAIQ
The data set is described as follows: EMSA.

B1: Nrp2 NCCE (dsDNA)
DNA 1: TTGCCAAATTATGTGACCTTTGGCAGACCAGCTG
DNA 2: CAGCTGGTCTGCCAAAGGTCACATAATTTGGCAA
Take B1: the binding result with COUP-TFII;NKX2-1 is reported as “binds”.

B2: recombinant NKX2-3 (natural protein, mouse, UniProt P97334 1-362, looked up)
chain: MMLPSPVTSTPFSVKDILNLEQQRHFHGAHLQAELEQHFHSAPCMLATAEGTQFSDAGEEDEEEEGEKLSYLNSLAAAEGHGDSGLCPQSYVHTVLRDACSGPKEQEEEVVSERSQKSCQLKKSLEAAGDCKTSEDGERPKPRSRRKPRVLFSQAQVFELERRFKQQRYLSAPEREHLASSLKLTSTQVKIWFQNRRYKCKRQRQDKSLELGTHAPPPPPRRVAVPVLVRDGKPCVTPSAQTYGSPYGVGAGAYSYNSFPAYGYGNSAAAAAAAAAAAAAAAAYSGSYGCAYPTGGGGGGGGTASAATTAMQPACSATGGGSFVNVSNLGGFGSGGGAQPLHQGAAAGSACTQGTLQGIRAW
Turning to B2, the binding result (in data set [1]; in the data set with COUP-TFII-GST [2]) was “binds” in each case.

B3: CE_ΔC_AB (dsDNA)
DNA 1: CCATGCACTTGAAAAAAAATGGAAAAACACCTCC
DNA 2: GGAGGTGTTTTTCCATTTTTTTTCAAGTGCATGG
Consider B3, for which the binding result in the data set with COUP-TFII-GST [3] is on record as “no binding”.
